From publication PMC11651597, “Characterization of a novel subfamily 1.4 lipase from Bacillus licheniformis IBRL-CHS2: Cloning and expression optimization” (PLOS ONE, 2024) come the findings set out here.

Substrate in the data set: CCCCCCCCCCCC(=O)Oc1ccc([N+](=O)[O-])cc1
Briefly: purified protein. The format is biochemical, Bacillus licheniformis. Particulars: 0.1-1 mM substrate, standard assay pH 7 phosphate buffer, 35 °C, 0.01% Triton X-100, 0.1% polyvinyl alcohol, DMSO.

B1: MLipA (mature LipA lipase of B. licheniformis IBRL-CHS2) (Bacillus licheniformis DSM 13 = ATCC 14580) (protein)
chain: ASHNPVVMVHGIGGADYNFIGIKSYLQSQGWTSSELYAINFIDKTGNNINNAPRLSEYIKRVLNQTGASKVDIVAHSMGGANTLYYIKNLDGADKVGHVVTLGGANRLVTNTAPQNDKISYTSIYSTSDYIVLNSLSKLDGANNVQISGVSHVGLLFSSKVNALIKDGLTASGK
notes: signal peptide (residues 1-30) removed; E. coli BL21 (DE3); IMAC purified
The term Km denotes the concentration of substrate that gives half-maximal velocity. For the protein B1, the Km is 360 µM.
